Molecular target: T1, p75 neurotrophin receptor on rat embryonic motor neurons (rat, UniProt P07174 30-425)
T1 sequence (looked up): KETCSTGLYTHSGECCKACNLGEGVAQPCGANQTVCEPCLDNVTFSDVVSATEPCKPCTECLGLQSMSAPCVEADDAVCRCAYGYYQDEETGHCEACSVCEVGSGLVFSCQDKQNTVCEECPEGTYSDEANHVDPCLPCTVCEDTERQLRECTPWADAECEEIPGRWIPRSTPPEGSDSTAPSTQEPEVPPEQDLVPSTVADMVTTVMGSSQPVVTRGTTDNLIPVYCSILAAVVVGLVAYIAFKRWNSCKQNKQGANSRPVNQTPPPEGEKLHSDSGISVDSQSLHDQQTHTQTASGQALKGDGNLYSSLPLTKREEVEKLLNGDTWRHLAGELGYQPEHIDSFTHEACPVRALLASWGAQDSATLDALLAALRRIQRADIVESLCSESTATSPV
Test: cell-based or functional assay

B1: peroxynitrite-treated NGF (mouse NGF nitrated by peroxynitrite) (ligand)
chain: SSTHPVFHMGEFSVCDSVSVWVGDKTTATDIKGKEVTVLAEVNINNSVFRQYFFETKCRASNPVESGCRGIDSKHWNSYCTTTHTFVKALTTDEKQAAWRFIRIDTACVCVLSRKATR
modifications: nitro groups on Tyr52 and Trp99 (the species identified by mass spectrometry); up to five nitro groups and methionine oxidation suggested
  fold increase of apoptotic activity against native NGF: 10000 fold

From US20140178384A1 (INSTITUT PASTEUR, published 2014)
